Source: US20160311921A1

Target: farletuzumab
Test: cell-based or functional assay

Chain of farletuzumab (heavy, as listed by the source, chain 1 of 2): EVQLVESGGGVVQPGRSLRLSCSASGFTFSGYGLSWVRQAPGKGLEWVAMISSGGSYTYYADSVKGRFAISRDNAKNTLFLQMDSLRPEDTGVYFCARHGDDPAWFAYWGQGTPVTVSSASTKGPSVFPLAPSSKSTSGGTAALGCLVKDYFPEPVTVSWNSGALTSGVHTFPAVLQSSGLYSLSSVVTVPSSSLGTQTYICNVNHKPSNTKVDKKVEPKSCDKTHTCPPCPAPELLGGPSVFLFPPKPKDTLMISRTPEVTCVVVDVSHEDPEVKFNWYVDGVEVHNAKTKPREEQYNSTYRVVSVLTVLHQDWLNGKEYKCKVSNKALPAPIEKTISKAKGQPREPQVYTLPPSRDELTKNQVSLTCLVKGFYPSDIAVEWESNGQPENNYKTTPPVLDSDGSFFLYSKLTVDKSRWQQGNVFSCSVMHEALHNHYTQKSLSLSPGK
Chain of farletuzumab (light, as listed by the source, chain 2 of 2): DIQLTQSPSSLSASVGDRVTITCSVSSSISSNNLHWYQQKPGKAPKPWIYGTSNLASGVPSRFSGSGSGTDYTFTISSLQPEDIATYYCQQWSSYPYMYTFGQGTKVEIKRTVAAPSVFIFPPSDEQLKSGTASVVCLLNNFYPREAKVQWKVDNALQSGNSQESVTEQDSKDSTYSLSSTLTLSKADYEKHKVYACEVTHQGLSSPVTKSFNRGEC

inhibition of Farletuzumab ADCC activity (luminescence, Promega ADCC Reporter Bioassay Core Kit, CHO-hFR-α target cells): 50%
Substance: cancer antigen 125 (CA125) (from UniProt Q8WXI7 1-14451)
